Source: patent US20210032360A1 (BERLIN CHEMIE, published 2021)

T1: Bone marrow stromal antigen 1 (BST1), human, on the cell surface (human, UniProt Q10588 33-293)
T1 construct: This is endogenous BST1 on A549, H226 and U937 cells and on primary MDS bone marrow cells; also called ADP-ribosyl cyclase 2; CD157
T1 sequence: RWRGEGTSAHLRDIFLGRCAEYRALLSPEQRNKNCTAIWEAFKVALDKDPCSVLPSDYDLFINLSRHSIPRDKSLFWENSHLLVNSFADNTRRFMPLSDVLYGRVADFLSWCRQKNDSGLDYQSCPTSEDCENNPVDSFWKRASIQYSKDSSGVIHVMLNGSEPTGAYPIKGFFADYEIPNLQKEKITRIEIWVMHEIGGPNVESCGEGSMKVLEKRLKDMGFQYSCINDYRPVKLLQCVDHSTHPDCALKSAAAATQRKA

B1: BST1_A1 (Fab, V domains shown)
VH: QVKLQQSGAELVRPGSSVKISCKASGYAFSNSWINWVKQRPGQGLEWIGQIYPGDYDTNYNGKFKGKATLTADYSSSTAYMQLNSLTSEDSAVYFCARGGSIYYGNLGFFDVWGAGTTVTVSS
VL: EMVLTQSPAIMSTSLGERVTMTCTASSRVSSSYLHWYQQKPGSSPKLWIYSTSNLASGVPARFSGSGSGTSYSLTISSMEAEDAATYYCHQYHRSPYTFGGGTKLEIKR
notes: also called anti-BST1 monoclonal antibody BST1_A1
B2: BST1_A2 (Fab, V domains shown)
VH: QAYLQQSGPELVKAGASVKMSCKASGYSFIEYTINWVKQSHGKSLEWIGNIDPYYGTTYYNQMFTGKATLTVDQSSNTAYMQLKSLTSEDSAVYFCARGSAWFPYWGQGTLVTVSA
VL: DIVMSQSPAIMSASPGEKVTMTCSASSSVTYMYWYQQKPGSSPRLLIYDTSNLASGVPVRFSGSGSGTSYSLTISRMEAEDTATYYCQQWSNYPLTFGAGTKLELKR
notes: they are whole murine Fab chains: bacterial leader, variable domain and constant domain, with a His tag on the heavy chain; also called anti-BST1 monoclonal antibody BST1_A2
B3: BST1_A3 (Fab, V domains shown)
VH: QVQLQQSRAELVMPGASVKMSCKTSGYTFSDYWVHWVRQRPGQGLEWIGAIDGSDTFNDYSQKFKGRATLTVDESSSTVYMQLSSLTSEDSAVYYCARGGLLQYWGQGTTLTVSS
VL: DIQLTQSPASLSASVGETVTITCRASENIYSYLAWYQQKQGKSPQLLVYNTKTLGEGVPSRFSGSGSGTQFSLKINSLQPEDFGSYYCQHHYGTPFTFGSGTKLEIKR
notes: they are whole murine Fab chains: bacterial leader, variable domain and constant domain, with a His tag on the heavy chain

Biological target: T1, Bone marrow stromal antigen 1 (BST1), …
Assay: flow cytometry on BST1-expressing H226 and A549 cells, PE-labelled secondary antibody, geometric mean fluorescence (PE GMFI); antibody concentration not given
Description: The specificity of antibodies against the BST1 selected in Example 2 was tested by flow cytometry. To test the ability of the antibodies to bind to the cell surface BST1 protein, the antibodies were incubated with the BST1-expressing cells, A549 and H226, from human lung adenocarcinoma and human lung squamous carcinoma, respectively. Cells were washed in FACS buffer (DPBS, 2% FBS), centrifuged and resuspended in 100 μl of the diluted primary BST1 antibody (also diluted in FACS buffer). The antibody-A549 complex was incubated on ice for 60 min and then washed twice with FACS buffer as described above. The cell-antibody pellet was resuspended in 100 μl of the diluted secondary antibody (also diluted in FACS buffer) and incubated on ice for 60 min on ice. The pellet was washed as before and resuspended in 200 μl FACS buffer. The samples were loaded onto the BD FACScanto II flow sytometer and the data analyzed using the BD FACSdiva software.

| Binder | binding result |
| --- | --- |
| B1 | binds |
| B2 | binds |
| B3 | binds |
